Test results from the supplement of paper PMC9112550, “Optimization of the antimicrobial peptide Bac7 by deep mutational scanning” (BMC Biology, 2022).

Tested on: Escherichia coli TOP10
Test: shrunken log2 fold change of peptide-encoding DNA abundance (4.5 h post-induction vs induction); higher = less antimicrobial activity (less host growth inhibition)
Conditions: time post-induction: 4.5 h; library: site-saturation at positions 5, 18, 19, 20
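Further: peptides expressed intracellularly from a pBAD plasmid library in pooled LB shake-flask culture, induced with 0.3% L-arabinose, DNA abundance read by NGS, three biological replicates, DESeq2 with apeglm shrinkage.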

## RRIRPRPPRLPRPRPRPRFVPRP
  shrunken log2 fold change: 0.109

## RRIRRRPPRLPRPRPRPQFVPRP
  shrunken log2 fold change: 0.153

## RRIRLRPPRLPRPRPRPDHEPRP
  shrunken log2 fold change: 0.0172

## RRIRKRPPRLPRPRPRPFIIPRP
  shrunken log2 fold change: -0.268

## RRIRKRPPRLPRPRPRPEKTPRP
  shrunken log2 fold change: -0.000942

## RRIRERPPRLPRPRPRPTYPPRP
  shrunken log2 fold change: -1.11

## RRIRSRPPRLPRPRPRPWLLPRP
  shrunken log2 fold change: -0.337

## RRIRTRPPRLPRPRPRPTWQPRP
  shrunken log2 fold change: 0.149

## RRIRNRPPRLPRPRPRPFRCPRP
  shrunken log2 fold change: -0.0563

## RRIRYRPPRLPRPRPRPLEYPRP
  shrunken log2 fold change: -0.443

## RRIRCRPPRLPRPRPRPLQVPRP
  shrunken log2 fold change: -0.481

## RRIRRRPPRLPRPRPRPCNMPRP
  shrunken log2 fold change: -0.152

## RRIRERPPRLPRPRPRPHCRPRP
  shrunken log2 fold change: -0.168

## RRIRQRPPRLPRPRPRPWAIPRP
  shrunken log2 fold change: 0.0485

## RRIRTRPPRLPRPRPRPVLMPRP
  shrunken log2 fold change: 0.187

## RRIRVRPPRLPRPRPRPRDRPRP
  shrunken log2 fold change: 0.46

## RRIRIRPPRLPRPRPRPAICPRP
  shrunken log2 fold change: -0.15

## RRIRSRPPRLPRPRPRPMYWPRP
  shrunken log2 fold change: -0.134

## RRIRYRPPRLPRPRPRPEKHPRP
  shrunken log2 fold change: -0.322

## RRIRQRPPRLPRPRPRPVTQPRP
  shrunken log2 fold change: -0.378

## RRIRDRPPRLPRPRPRPLTAPRP
  shrunken log2 fold change: 0.48

## RRIRYRPPRLPRPRPRPTVQPRP
  shrunken log2 fold change: 0.028

## RRIRMRPPRLPRPRPRPPQPPRP
  shrunken log2 fold change: 1.37

## RRIRLRPPRLPRPRPRPDLVPRP
  shrunken log2 fold change: 0.00214

## RRIRVRPPRLPRPRPRPCPCPRP
  shrunken log2 fold change: -0.151

## RRIRLRPPRLPRPRPRPSETPRP
  shrunken log2 fold change: -0.0373

## RRIRKRPPRLPRPRPRPAMCPRP
  shrunken log2 fold change: 0.059

## RRIRDRPPRLPRPRPRPQDYPRP
  shrunken log2 fold change: -0.112

## RRIRTRPPRLPRPRPRPRGKPRP
  shrunken log2 fold change: 0.259

## RRIRMRPPRLPRPRPRPQVNPRP
  shrunken log2 fold change: 0.166

## RRIRKRPPRLPRPRPRPVIFPRP
  shrunken log2 fold change: 0.265

## RRIRLRPPRLPRPRPRPVEQPRP
  shrunken log2 fold change: -0.0062

## RRIRMRPPRLPRPRPRPDALPRP
  shrunken log2 fold change: 0.438

## RRIRRRPPRLPRPRPRPVNWPRP
  shrunken log2 fold change: 0.439

## RRIRPRPPRLPRPRPRPWQIPRP
  shrunken log2 fold change: 0.452

## RRIRQRPPRLPRPRPRPFTLPRP
  shrunken log2 fold change: -0.0549

## RRIRVRPPRLPRPRPRPIWEPRP
  shrunken log2 fold change: -0.00136

## RRIRHRPPRLPRPRPRPMGKPRP
  shrunken log2 fold change: -0.189

## RRIRKRPPRLPRPRPRPNVEPRP
  shrunken log2 fold change: 0.192

## RRIRGRPPRLPRPRPRPCVWPRP
  shrunken log2 fold change: 0.921

## RRIRPRPPRLPRPRPRPLFPPRP
  shrunken log2 fold change: -0.0198

## RRIRGRPPRLPRPRPRPTNGPRP
  shrunken log2 fold change: 0.254

## RRIRHRPPRLPRPRPRPMYWPRP
  shrunken log2 fold change: -0.222

## RRIRQRPPRLPRPRPRPYDGPRP
  shrunken log2 fold change: -0.101

## RRIRYRPPRLPRPRPRPTTCPRP
  shrunken log2 fold change: -0.923

## RRIRIRPPRLPRPRPRPSTPPRP
  shrunken log2 fold change: -0.373

## RRIRYRPPRLPRPRPRPECMPRP
  shrunken log2 fold change: -0.417

## RRIRPRPPRLPRPRPRPTYMPRP
  shrunken log2 fold change: -0.0483

## RRIRQRPPRLPRPRPRPTLWPRP
  shrunken log2 fold change: 0.0794

## RRIRPRPPRLPRPRPRPPYQPRP
  shrunken log2 fold change: 0.249

## RRIRMRPPRLPRPRPRPCHDPRP
  shrunken log2 fold change: -0.347

## RRIRCRPPRLPRPRPRPSNWPRP
  shrunken log2 fold change: 0.0114

## RRIRFRPPRLPRPRPRPFWKPRP
  shrunken log2 fold change: -0.0963

## RRIRERPPRLPRPRPRPWCPPRP
  shrunken log2 fold change: -0.758

## RRIRFRPPRLPRPRPRPDCYPRP
  shrunken log2 fold change: -0.329

## RRIRRRPPRLPRPRPRPGMAPRP
  shrunken log2 fold change: 0.339

## RRIRVRPPRLPRPRPRPEDSPRP
  shrunken log2 fold change: 0.0654

## RRIRSRPPRLPRPRPRPQMIPRP
  shrunken log2 fold change: -0.292

## RRIRERPPRLPRPRPRPKMEPRP
  shrunken log2 fold change: -0.0415

## RRIRQRPPRLPRPRPRPENCPRP
  shrunken log2 fold change: -0.219

## RRIRNRPPRLPRPRPRPYRSPRP
  shrunken log2 fold change: -0.0179

## RRIRLRPPRLPRPRPRPMVRPRP
  shrunken log2 fold change: 0.0341

## RRIRMRPPRLPRPRPRPLFYPRP
  shrunken log2 fold change: -0.305

## RRIRARPPRLPRPRPRPKLYPRP
  shrunken log2 fold change: 0.0318

## RRIRWRPPRLPRPRPRPMHIPRP
  shrunken log2 fold change: 0.0409

## RRIRQRPPRLPRPRPRPYTQPRP
  shrunken log2 fold change: -0.25

## RRIRPRPPRLPRPRPRPEFVPRP
  shrunken log2 fold change: -0.0384

## RRIRGRPPRLPRPRPRPTTQPRP
  shrunken log2 fold change: 0.429

## RRIRQRPPRLPRPRPRPVTIPRP
  shrunken log2 fold change: -0.0898

## RRIRCRPPRLPRPRPRPKRCPRP
  shrunken log2 fold change: -0.00852

## RRIRCRPPRLPRPRPRPAQHPRP
  shrunken log2 fold change: 0.0537

## RRIRDRPPRLPRPRPRPQNCPRP
  shrunken log2 fold change: 0.00875

## RRIRCRPPRLPRPRPRPEDYPRP
  shrunken log2 fold change: -0.304

## RRIRLRPPRLPRPRPRPYGWPRP
  shrunken log2 fold change: -0.265

## RRIRMRPPRLPRPRPRPHTDPRP
  shrunken log2 fold change: 0.0445

## RRIRNRPPRLPRPRPRPPFTPRP
  shrunken log2 fold change: 0.0907

## RRIRFRPPRLPRPRPRPANEPRP
  shrunken log2 fold change: 0.0451

## RRIRDRPPRLPRPRPRPNINPRP
  shrunken log2 fold change: -0.35

## RRIRRRPPRLPRPRPRPARSPRP
  shrunken log2 fold change: 0.512

## RRIRHRPPRLPRPRPRPFKRPRP
  shrunken log2 fold change: 0.0885

## RRIRGRPPRLPRPRPRPDHPPRP
  shrunken log2 fold change: -0.0241

## RRIRARPPRLPRPRPRPYTRPRP
  shrunken log2 fold change: -0.124

## RRIRSRPPRLPRPRPRPRRKPRP
  shrunken log2 fold change: 0.207

## RRIRCRPPRLPRPRPRPCPQPRP
  shrunken log2 fold change: -0.184

## RRIRLRPPRLPRPRPRPLEEPRP
  shrunken log2 fold change: 0.543

## RRIRHRPPRLPRPRPRPCYMPRP
  shrunken log2 fold change: -0.494

## RRIRWRPPRLPRPRPRPMTKPRP
  shrunken log2 fold change: 0.181

## RRIRTRPPRLPRPRPRPDFNPRP
  shrunken log2 fold change: -0.177

## RRIRTRPPRLPRPRPRPLGEPRP
  shrunken log2 fold change: 0.0248

## RRIRMRPPRLPRPRPRPPWVPRP
  shrunken log2 fold change: 0.241

## RRIRRRPPRLPRPRPRPLRQPRP
  shrunken log2 fold change: 1.04

## RRIRDRPPRLPRPRPRPKNIPRP
  shrunken log2 fold change: -0.465

## RRIRPRPPRLPRPRPRPMLEPRP
  shrunken log2 fold change: 0.0664

## RRIRHRPPRLPRPRPRPLNAPRP
  shrunken log2 fold change: -0.0576

## RRIRFRPPRLPRPRPRPYWWPRP
  shrunken log2 fold change: -0.198

## RRIRGRPPRLPRPRPRPFCPPRP
  shrunken log2 fold change: -0.0253

## RRIRPRPPRLPRPRPRPMNHPRP
  shrunken log2 fold change: -0.11

## RRIRDRPPRLPRPRPRPMIVPRP
  shrunken log2 fold change: 0.00989

## RRIRTRPPRLPRPRPRPYHWPRP
  shrunken log2 fold change: -0.675

## RRIRYRPPRLPRPRPRPIIYPRP
  shrunken log2 fold change: -0.522

## RRIRDRPPRLPRPRPRPIWCPRP
  shrunken log2 fold change: -0.0176

## RRIRPRPPRLPRPRPRPPMYPRP
  shrunken log2 fold change: -0.368

## RRIRYRPPRLPRPRPRPGYQPRP
  shrunken log2 fold change: -0.241

## RRIRWRPPRLPRPRPRPKKFPRP
  shrunken log2 fold change: 0.0141

## RRIRVRPPRLPRPRPRPFPCPRP
  shrunken log2 fold change: -0.00113

## RRIRVRPPRLPRPRPRPTEMPRP
  shrunken log2 fold change: -0.0269

## RRIRPRPPRLPRPRPRPRPFPRP
  shrunken log2 fold change: 0.248

## RRIRDRPPRLPRPRPRPAKQPRP
  shrunken log2 fold change: 0.181

## RRIRHRPPRLPRPRPRPSLGPRP
  shrunken log2 fold change: 0.165

## RRIRRRPPRLPRPRPRPIDTPRP
  shrunken log2 fold change: -0.307

## RRIRDRPPRLPRPRPRPDIRPRP
  shrunken log2 fold change: -0.00151

## RRIRDRPPRLPRPRPRPRLQPRP
  shrunken log2 fold change: 0.0983

## RRIRNRPPRLPRPRPRPLITPRP
  shrunken log2 fold change: -0.173

## RRIRWRPPRLPRPRPRPTPHPRP
  shrunken log2 fold change: 0.427

## RRIRHRPPRLPRPRPRPESWPRP
  shrunken log2 fold change: -0.00647

## RRIRLRPPRLPRPRPRPEYEPRP
  shrunken log2 fold change: 0.0712

## RRIRRRPPRLPRPRPRPEETPRP
  shrunken log2 fold change: 0.244

## RRIRYRPPRLPRPRPRPKGFPRP
  shrunken log2 fold change: -0.0319

## RRIRYRPPRLPRPRPRPGPTPRP
  shrunken log2 fold change: -0.0479

## RRIRWRPPRLPRPRPRPIQMPRP
  shrunken log2 fold change: -0.0543

## RRIRDRPPRLPRPRPRPWCPPRP
  shrunken log2 fold change: -0.422

## RRIRMRPPRLPRPRPRPKNGPRP
  shrunken log2 fold change: 0.0732

## RRIRRRPPRLPRPRPRPTKVPRP
  shrunken log2 fold change: 0.118

## RRIRWRPPRLPRPRPRPNIEPRP
  shrunken log2 fold change: -0.0429

## RRIRDRPPRLPRPRPRPCAKPRP
  shrunken log2 fold change: 0.244

## RRIRVRPPRLPRPRPRPRVRPRP
  shrunken log2 fold change: 0.363

## RRIRRRPPRLPRPRPRPREVPRP
  shrunken log2 fold change: 0.442

## RRIRGRPPRLPRPRPRPYMHPRP
  shrunken log2 fold change: -0.355

## RRIRCRPPRLPRPRPRPWYGPRP
  shrunken log2 fold change: -0.49

## RRIRTRPPRLPRPRPRPRAEPRP
  shrunken log2 fold change: 0.28

## RRIRLRPPRLPRPRPRPWVCPRP
  shrunken log2 fold change: -0.0462

## RRIRKRPPRLPRPRPRPVGCPRP
  shrunken log2 fold change: 0.266

## RRIRQRPPRLPRPRPRPEPYPRP
  shrunken log2 fold change: 0.0808

## RRIRDRPPRLPRPRPRPSQQPRP
  shrunken log2 fold change: -0.123

## RRIRCRPPRLPRPRPRPDEIPRP
  shrunken log2 fold change: 0.146

## RRIRIRPPRLPRPRPRPLYDPRP
  shrunken log2 fold change: -1.02

## RRIRTRPPRLPRPRPRPKPYPRP
  shrunken log2 fold change: -0.607

## RRIRTRPPRLPRPRPRPPQHPRP
  shrunken log2 fold change: 0.22

## RRIRPRPPRLPRPRPRPQCGPRP
  shrunken log2 fold change: -0.0915

## RRIRGRPPRLPRPRPRPAALPRP
  shrunken log2 fold change: 0.912

## RRIRMRPPRLPRPRPRPTYAPRP
  shrunken log2 fold change: 0.0341

## RRIRWRPPRLPRPRPRPRDCPRP
  shrunken log2 fold change: 0.226

## RRIRCRPPRLPRPRPRPKKLPRP
  shrunken log2 fold change: 0.063

## RRIRDRPPRLPRPRPRPWVDPRP
  shrunken log2 fold change: -0.0979

## RRIRYRPPRLPRPRPRPTLQPRP
  shrunken log2 fold change: 0.201

## RRIRTRPPRLPRPRPRPRLEPRP
  shrunken log2 fold change: 0.32

## RRIRGRPPRLPRPRPRPCSVPRP
  shrunken log2 fold change: 0.394

## RRIRMRPPRLPRPRPRPGAFPRP
  shrunken log2 fold change: 0.611

## RRIRPRPPRLPRPRPRPAIAPRP
  shrunken log2 fold change: 0.194

## RRIRIRPPRLPRPRPRPFQTPRP
  shrunken log2 fold change: -0.271
